Test in all cases: cell-based or functional assay
Experiment [1] addresses gp120 of HIV-1 IIIB (laboratory strain, on virus) (HIV-1 IIIB).
The target of experiment [2] is gp120 of HIV-1 MN (laboratory strain, on virus) (HIV-1 MN).
Experiment [3] addresses gp120 of HIV-1 clade B primary isolate Bal, on virus (HIV-1 Bal).
In experiment [4] the target is gp120 of HIV-1 clade C primary isolate DU368 (R5), on virus (HIV-1 DU368).
In experiment [5] the target is gp120 of HIV-1 clade C primary isolate DU179 (R5/X4), on virus (HIV-1 DU179).
Experiment [6] has as its target gp120 of HIV-1 clade B primary isolate P15, on virus (HIV-1 P15).
The target in experiment [7] is gp120 of HIV-1 clade B primary isolate PVO, on virus (HIV-1 PVO).
For experiment [8], the target named is gp120 of HIV-1 clade C primary isolate DU422 (R5), on virus (HIV-1 DU422).
For experiment [9], the target named is gp120 of HIV-1 clade B primary isolate JR-FL, on virus (HIV-1 JR-FL).
Experiment [10] concerns the target gp120 of HIV-1 clade B primary isolate GV, on virus (HIV-1 GV).
The target in experiment [11] is gp120 of HIV-1 clade C primary isolate DU151 (R5), on virus (HIV-1 DU151).

Turning to “product of clone 611-2, CD4(V1 + V2)-hIgG1 (from UniProt P01730 26-203) (Fc fusion)”, the ID50 (nM), protection of MT-2 cells from virus-induced cell killing in [1] is 0.79 nM; in experiment [2] it was less than 0.41 nM. The % reduction in p24 in PMBC at 890 nM in experiment [3] is 100%; in experiment [4] it was 53%; in experiment [5] it was 78%; in experiment [6] it was 94%; in experiment [7], 96%; in experiment [8], 9%. Also, the % reduction in p24 in PMBC at 890 nM is 100% in [9], 88% in experiment [10] and 63% in experiment [11]. For the same substance, the ID90 (nM), 90% reduction of p24 production in PMBC in [3] is 5.3 nM; in [9] it was 8.2 nM.

(Values after US20040110922A1.)
